Assay results taken from patent US20040018558A1 (published 2004).
Where no end group is shown, it is not given here.

target: T1, rhodopsin (activation state not stated) (bovine, UniProt P02699 1-348); assay: ELISA of lysates, OD450 with receptor minus without receptor
T1 construct: whole, on cells; same protein as m1; also called EDTA-washed rhodopsin
Protocol: The methods of Example 7 repeated using rhodopsin screening with a Gt library. To identify the rank order of binding, the lysates were analyzed using ELISA methods in which the secondary antibody was conjugated to HRP. Following addition of the substrate, the microplate was read using a spectrophotometer. The binding is the OD₄₅₀ for wells with receptor—OD₄₅₀ for wells in which no receptor (control wells with empty lipid vesicles).

T1 sequence (P02699 whole entry): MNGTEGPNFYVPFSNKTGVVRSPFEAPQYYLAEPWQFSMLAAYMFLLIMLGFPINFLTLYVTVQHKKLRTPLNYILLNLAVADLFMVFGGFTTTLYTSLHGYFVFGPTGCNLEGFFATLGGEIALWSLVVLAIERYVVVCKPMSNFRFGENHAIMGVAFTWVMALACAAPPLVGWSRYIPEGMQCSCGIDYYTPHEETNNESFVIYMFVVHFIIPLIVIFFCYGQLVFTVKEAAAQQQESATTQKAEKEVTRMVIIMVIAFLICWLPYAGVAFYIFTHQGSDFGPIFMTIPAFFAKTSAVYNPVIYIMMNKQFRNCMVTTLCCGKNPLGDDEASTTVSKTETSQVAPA

ELISA | Binder
0.833 OD450 | LRENLKDCGLL (peptide, not shown: small tags and cut ends, also: fused to fusion carrier of the lysate via linker, not given here) [L14 LRENLKDCGLL]
0.603 OD450 | ILESLNECGLF (peptide, not shown: small tags and cut ends, also: fused to fusion carrier of the lysate via linker, not given here) [L34 ILESLNECGLF]
0.621 OD450 | VRDILKDCGLF (peptide, not shown: small tags and cut ends, also: fused to fusion carrier of the lysate via linker, not given here) [L15 VRDILKDCGLF]
0.823 OD450 | LLDILKDCGLF (peptide, not shown: small tags and cut ends, also: fused to lysate carrier and linker, not given here) [L38 LLDILKDCGLF]
0.506 OD450 | IHDRLKDCGLF (peptide, not shown: small tags and cut ends, also: fused to fusion carrier of the lysate via linker, not given here, first of two rows labelled L10) [L10 IHDRLKDCGLF]
0.6 OD450 | ILQNLKDCGLF (peptide, not shown: small tags and cut ends, also: fused to fusion carrier of the lysate via linker, not given here) [L17 ILQNLKDCGLF]
0.257 OD450 | IVKNLEDCGLF (peptide, not shown: small tags and cut ends, also: fused to lysate carrier and linker, not given here) [L8 IVKNLEDCGLF]
0.187 OD450 | ISKNLRDCGLL (peptide, not shown: small tags and cut ends, also: fused to fusion carrier of the lysate via linker, not given here) [L13 ISKNLRDCGLL]
0.423 OD450 | IRGSLKDCGLF (peptide, not shown: small tags and cut ends, also: fused to LacI carrier via linker, letters not given here, also called L20) [Clone No. 13 (Table IX) IRGSLKDCGLF]

target: T2, dark-adapted rhodopsin (bovine rod outer segment membranes) (bovine, UniProt P02699 1-348, retinylidene chromophore bound to Lys-296); assay: LacI display panning, dark-adapted ROS membranes
T2 construct: whole, on cells; also called dark-adapted bovine rhodopsin
T2 sequence (P02699 whole entry): as above

binding result | Binder
binds | IRNNLKRYGMF (peptide, not shown: small tags and cut ends, also: fused to LacI carrier via linker, letters not given here) [Clone No. 17 (Table X) IRNNLKRYGMF]
binds | SLEILKDWGLF (peptide, not shown: small tags and cut ends, also: fused to LacI carrier via linker, letters not given here) [Clone No. 33/37 (Table X) SLEILKDWGLF]
binds | IRENFKYLGLW (peptide, not shown: small tags and cut ends, also: fused to LacI carrier via linker, letters not given here) [Clone No. 26 (Table X) IRENFKYLGLW]
binds | IRENLKDLGLV (peptide, not shown: small tags and cut ends, also: fused to LacI carrier via linker, letters not given here) [Clone No. 21 (Table X) IRENLKDLGLV]
binds | VRDNLKNCFLF (peptide, not shown: small tags and cut ends, also: fused to LacI carrier via linker, letters not given here) [Clone No. 3 (Table X) VRDNLKNCFLF]
binds | IGEQIEDCGPF (peptide, not shown: small tags and cut ends, also: fused to LacI carrier via linker, letters not given here) [Clone No. 7 (Table X) IGEQIEDCGPF]
binds | IRGTLKGWGLF (peptide, not shown: small tags and cut ends, also: fused to LacI carrier via linker, letters not given here) [Clone No. 41 (Table X) IRGTLKGWGLF]
binds | IREKWKDLALF (peptide, not shown: small tags and cut ends, also: fused to LacI carrier via linker, letters not given here) [Clone No. 2 (Table X) IREKWKDLALF]
